In patent publication US20140018304A1 (INDUSTRY ACADEMIC COOPERATION FOUNDATION YONSEI UNIVERSITY, published 2014):

What was measured:
[1] = biological target: T1, GLRX3C, GLRX3 mutant composed of only the C-terminal domains, expressed from 3xFLAG-CMV14/H14C (Homo sapiens, UniProt O76003 134-335); assay: co-expression in HeLa cells, precipitation with Ni-NTA resin, western blot
T1 construct: Deletion construct; not shown: C-terminal 3xFLAG tag of the 3xFLAG-CMV14 vector and the BamHI-site linker to it
T1 sequence: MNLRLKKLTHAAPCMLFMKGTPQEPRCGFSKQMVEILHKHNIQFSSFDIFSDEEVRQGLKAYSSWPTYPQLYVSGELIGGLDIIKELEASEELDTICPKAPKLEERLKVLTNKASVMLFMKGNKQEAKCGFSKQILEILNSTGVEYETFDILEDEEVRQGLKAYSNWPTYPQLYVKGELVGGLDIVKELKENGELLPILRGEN

[2] = biological target: T2, Bacterial Alkaline Phasphatase (BAP) (UniProt P00634 22-471 = phosphatase); assay: as above
T2 construct: Control
T2 sequence (P00634 22-471): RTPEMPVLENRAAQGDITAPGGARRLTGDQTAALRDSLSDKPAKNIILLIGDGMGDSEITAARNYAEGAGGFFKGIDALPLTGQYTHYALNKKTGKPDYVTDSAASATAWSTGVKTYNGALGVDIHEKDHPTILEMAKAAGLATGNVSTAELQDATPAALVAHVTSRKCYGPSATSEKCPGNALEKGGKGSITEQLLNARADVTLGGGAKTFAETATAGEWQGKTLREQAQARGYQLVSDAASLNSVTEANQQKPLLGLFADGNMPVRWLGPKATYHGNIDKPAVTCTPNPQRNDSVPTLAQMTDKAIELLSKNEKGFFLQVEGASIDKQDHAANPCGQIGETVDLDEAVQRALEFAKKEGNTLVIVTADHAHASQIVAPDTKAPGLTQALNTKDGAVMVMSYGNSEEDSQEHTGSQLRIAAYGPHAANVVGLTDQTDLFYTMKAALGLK
Protocol: Appropriate plasmid combination was transfected into HeLa cells using Lipofectamine Plus (Invitrogen). At 48 hours post-transfection, transfected cells were dissolved in the cell lysis buffer (10 mM Tris, pH 7.5, mM NaCl, 2 mM EDTA, 0.5% Triton X-100, 1 mM PMSF, and protease inhibitor cocktail (Roche Diagnostics, Mannheim, Germany)) to obtain total proteins. For secretary protein preparation, the culture medium was exchanged with a serum-free culture medium at 24 hours post transfection of the plasmid, followed by culturing again for 24 hours, and then the culture medium was collected. The collected culture medium was centrifuged to discard cell components. For immunoprecipitation of His-tagged proteins, 300 μg of total proteins and the culture medium were reacted with the Ni-NTA resin at 4 for 5 hours. After 5 hours, the reacted material was washed five times with a washing buffer (50 mM Tris, pH 7.5, 150 mM NaCl, and 0.5% Triton X-100), and then proteins attached to the resin were dissolved in the SDS sample buffer, followed by SDS-PAGE and then western blotting.

binding result [1]: no binding | binding result [2]: no binding
B1: PAUF-Myc/His from pcDNA3.1(+)-PAUF-Myc/His (other, UniProt Q96DA0 17-172, looked up)
chain: GKMYGPGGGKYFSTTEDYDHEITGLRVSVGLLLVKSVQVKLGDSWDVKLGALGGNTQEVTLQPGEYITKVFVAFQAFLRGMVMYTSKDRYFYFGKLDGQISSAYPSQEGQVLVGIYGQYQLLGIKSIGFEWNYPLEEPTTEPPVNLTYSANSPVGR
notes: In vivo experiment: expressed in HeLa cells, total proteins and culture medium reacted with Ni-NTA resin; also called PAUF-His; His-PAUF; not shown: Myc/His tag of the pcDNA3.1(+)-Myc/His vector (Invitrogen)
